These are literature values, as cited in paper PMC8859281.

Data set [1] has as its target prokineticin receptor 2 (Homo sapiens) (UniProt Q8NFJ6).
Data set [2] has as its target prokineticin receptor 1 (Homo sapiens) (UniProt Q8TCW9).
A further data set concerns the target κ-opioid receptor (UniProt P41145).

Chain of MIT1 (P25687 whole entry): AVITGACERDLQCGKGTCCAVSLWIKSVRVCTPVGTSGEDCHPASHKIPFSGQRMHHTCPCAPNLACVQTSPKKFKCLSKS
Chain of prokineticin receptor 1 (Homo sapiens) (Q8TCW9 whole entry): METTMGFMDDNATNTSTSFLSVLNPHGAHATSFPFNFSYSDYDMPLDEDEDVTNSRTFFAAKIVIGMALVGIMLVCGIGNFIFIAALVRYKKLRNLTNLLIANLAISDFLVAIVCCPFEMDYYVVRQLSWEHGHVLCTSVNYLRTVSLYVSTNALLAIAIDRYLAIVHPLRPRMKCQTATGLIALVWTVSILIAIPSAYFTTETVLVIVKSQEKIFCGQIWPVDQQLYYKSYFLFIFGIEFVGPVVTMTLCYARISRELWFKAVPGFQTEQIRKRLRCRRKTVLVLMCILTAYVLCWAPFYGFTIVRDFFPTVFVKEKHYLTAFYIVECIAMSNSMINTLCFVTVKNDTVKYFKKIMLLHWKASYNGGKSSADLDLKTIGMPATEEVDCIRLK
Chain of κ-opioid receptor (P41145 whole entry): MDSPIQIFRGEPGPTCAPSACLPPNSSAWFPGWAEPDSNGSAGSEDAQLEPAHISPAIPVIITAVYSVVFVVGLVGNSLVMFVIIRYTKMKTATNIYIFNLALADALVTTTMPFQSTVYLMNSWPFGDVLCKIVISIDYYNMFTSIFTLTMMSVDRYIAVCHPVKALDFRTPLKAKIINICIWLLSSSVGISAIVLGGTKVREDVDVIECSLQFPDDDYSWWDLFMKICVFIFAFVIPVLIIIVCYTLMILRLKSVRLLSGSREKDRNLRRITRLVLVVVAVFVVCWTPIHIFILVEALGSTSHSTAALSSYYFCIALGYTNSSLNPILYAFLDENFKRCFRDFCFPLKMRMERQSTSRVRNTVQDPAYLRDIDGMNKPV
Chain of prokineticin receptor 2 (Homo sapiens) (Q8NFJ6 whole entry): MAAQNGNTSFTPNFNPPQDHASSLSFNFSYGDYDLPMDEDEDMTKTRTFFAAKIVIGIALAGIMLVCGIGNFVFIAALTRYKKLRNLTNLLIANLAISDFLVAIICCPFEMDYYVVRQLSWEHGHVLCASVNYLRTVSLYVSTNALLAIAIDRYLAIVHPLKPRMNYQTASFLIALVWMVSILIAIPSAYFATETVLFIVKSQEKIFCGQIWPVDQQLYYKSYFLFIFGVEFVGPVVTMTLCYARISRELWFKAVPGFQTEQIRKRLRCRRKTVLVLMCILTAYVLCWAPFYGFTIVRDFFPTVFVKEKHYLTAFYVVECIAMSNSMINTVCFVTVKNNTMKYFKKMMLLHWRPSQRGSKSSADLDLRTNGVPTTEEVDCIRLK

As a reminder, the Ki is a dissociation constant, usually derived from enzyme kinetics or from competition with a known ligand. In the case of MIT1 (from UniProt P25687), the Ki in data set [1] is 0.67 nM; in data set [2], 4.1 nM.

As to dynorphin A 1-17 (from UniProt P01213), the Ki with κ-opioid receptor is 0.28 nM.
